Measured values published in publication PMC9482650, “Quantitative fragmentomics allow affinity mapping of interactomes” (Nature Communications, 2022).

Columns and labels:
Assay in all cases: holdup assay
Set-up in all cases: key: below the threshold = too weak to quantify, mostly under pKd 3.1 to 4
HTRA1, Q92743 = molecular target: HTRA1, Q92743
MAGI2_6, Q86UL8 = molecular target: MAGI2_6, Q86UL8
TJP3_3, O95049 = molecular target: T1, TJP3_3, O95049
T1 sequence (O95049 375-456, limits assumed, looked up): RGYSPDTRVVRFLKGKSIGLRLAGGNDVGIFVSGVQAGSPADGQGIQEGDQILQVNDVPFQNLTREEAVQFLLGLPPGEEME

DLG3_2, Q92796 = molecular target: T2, DLG3_2, Q92796
T2 sequence (Q92796 221-321, limits assumed, looked up): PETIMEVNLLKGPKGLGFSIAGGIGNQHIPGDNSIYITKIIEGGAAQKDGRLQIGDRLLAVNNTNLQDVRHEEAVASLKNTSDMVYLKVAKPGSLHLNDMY

FRMPD2_3, Q68DX3 = molecular target: FRMPD2_3, Q68DX3
IL16_3, Q14005 = molecular target: IL16_3, Q14005
GRIP2_7, Q9C0E4 = molecular target: GRIP2_7, Q9C0E4
NHERF4_4, Q86UT5 = molecular target: NHERF4_4, Q86UT5
APBA3_1, O96018 = molecular target: T3, APBA3_1, O96018
T3 sequence (O96018 389-490, limits assumed, looked up): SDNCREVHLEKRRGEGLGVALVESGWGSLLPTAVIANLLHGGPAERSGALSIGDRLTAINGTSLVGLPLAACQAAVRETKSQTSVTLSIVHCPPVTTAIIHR

HTRA3, P83110 = molecular target: T4, HTRA3, P83110
T4 sequence (P83110 354-453, limits assumed, looked up): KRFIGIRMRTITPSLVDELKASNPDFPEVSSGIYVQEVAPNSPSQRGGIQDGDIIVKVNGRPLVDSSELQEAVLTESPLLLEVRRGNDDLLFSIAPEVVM

LNX1_2, Q8TBB1 = molecular target: LNX1_2, Q8TBB1
LIMK2, P53671 = molecular target: LIMK2, P53671
Inadl_3, Q8NI35 = molecular target: Inadl_3, Q8NI35
TJP1_3, Q07157 = molecular target: TJP1_3, Q07157
FRMPD4, Q14CM0 = molecular target: FRMPD4, Q14CM0
HTRA2, O43464 = molecular target: HTRA2, O43464
GRIP1_4, Q9Y3R0 = molecular target: T5, GRIP1_4, Q9Y3R0
T5 sequence (Q9Y3R0 467-571, limits assumed, looked up): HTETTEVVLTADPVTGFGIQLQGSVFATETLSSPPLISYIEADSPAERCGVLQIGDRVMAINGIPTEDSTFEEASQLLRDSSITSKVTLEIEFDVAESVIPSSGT

FRMPD1, Q5SYB0 = molecular target: T6, FRMPD1, Q5SYB0
T6 sequence (Q5SYB0 52-145, limits assumed, looked up): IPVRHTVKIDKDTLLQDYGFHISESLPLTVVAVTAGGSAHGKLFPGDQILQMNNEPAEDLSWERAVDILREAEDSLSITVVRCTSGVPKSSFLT

SIPA1L2, Q9P2F8 = molecular target: T7, SIPA1L2, Q9P2F8
T7 sequence (Q9P2F8 945-1036, limits assumed, looked up): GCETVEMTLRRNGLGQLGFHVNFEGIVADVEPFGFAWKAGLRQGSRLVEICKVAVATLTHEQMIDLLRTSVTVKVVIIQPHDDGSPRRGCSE

PDZD2_2, O15018 = molecular target: T8, PDZD2_2, O15018
T8 sequence (O15018 329-429, limits assumed, looked up): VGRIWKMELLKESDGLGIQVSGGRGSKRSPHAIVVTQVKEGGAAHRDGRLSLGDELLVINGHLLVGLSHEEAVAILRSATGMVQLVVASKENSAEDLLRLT

GRIP1_5, Q9Y3R0 = molecular target: T9, GRIP1_5, Q9Y3R0
T9 sequence (Q9Y3R0 568-668, limits assumed, looked up): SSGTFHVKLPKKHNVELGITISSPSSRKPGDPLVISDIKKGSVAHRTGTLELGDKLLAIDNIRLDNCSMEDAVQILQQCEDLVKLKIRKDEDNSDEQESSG

Inadl_5, Q8NI35 = molecular target: Inadl_5, Q8NI35
SNTG2, Q9NY99 = molecular target: T10, SNTG2, Q9NY99
T10 sequence (Q9NY99 68-166, limits assumed, looked up): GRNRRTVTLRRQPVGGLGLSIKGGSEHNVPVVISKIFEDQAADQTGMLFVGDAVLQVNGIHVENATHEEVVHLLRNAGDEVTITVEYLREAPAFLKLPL

GORASP1, Q9BQQ3 = molecular target: GORASP1, Q9BQQ3
PDZD7_3, Q9H5P4 = molecular target: T11, PDZD7_3, Q9H5P4
T11 sequence (Q9H5P4 857-944, limits assumed, looked up): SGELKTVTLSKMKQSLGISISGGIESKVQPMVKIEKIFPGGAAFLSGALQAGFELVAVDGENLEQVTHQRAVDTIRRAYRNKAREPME

MAGI2_2, Q86UL8 = molecular target: MAGI2_2, Q86UL8
[1] = plain residues with an end cap or a label only (N-terminal biotin on a linker: ahx)
[2] = plain residues with an end cap or a label only (N-terminal biotin on a linker: gsgsgs; C-terminal amide)
[3] = plain residues with an end cap or a label only (N-terminal biotin on a linker: none)

FRMPD2_3, Q68DX3, sequence (Q68DX3 1073-1166): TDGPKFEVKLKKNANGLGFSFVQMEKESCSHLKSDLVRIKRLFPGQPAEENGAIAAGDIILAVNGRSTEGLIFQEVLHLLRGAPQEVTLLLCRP
TJP1_3, Q07157, sequence (Q07157 416-512): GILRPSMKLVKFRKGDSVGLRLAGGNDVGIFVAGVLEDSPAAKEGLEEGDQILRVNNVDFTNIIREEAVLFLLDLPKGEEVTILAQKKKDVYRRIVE
Inadl_3, Q8NI35, sequence (Q8NI35 359-469): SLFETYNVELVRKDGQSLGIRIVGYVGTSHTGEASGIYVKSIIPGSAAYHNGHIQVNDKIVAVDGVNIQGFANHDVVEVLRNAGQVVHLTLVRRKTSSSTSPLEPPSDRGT
LIMK2, P53671, sequence (P53671 143-248): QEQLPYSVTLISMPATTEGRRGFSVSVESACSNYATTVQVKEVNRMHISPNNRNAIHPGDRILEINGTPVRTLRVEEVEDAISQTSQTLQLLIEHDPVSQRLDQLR
NHERF4_4, Q86UT5, sequence (Q86UT5 464-550): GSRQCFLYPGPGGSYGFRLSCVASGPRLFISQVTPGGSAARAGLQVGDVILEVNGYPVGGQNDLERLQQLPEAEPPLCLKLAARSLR
FRMPD4, Q14CM0, sequence (Q14CM0 67-160): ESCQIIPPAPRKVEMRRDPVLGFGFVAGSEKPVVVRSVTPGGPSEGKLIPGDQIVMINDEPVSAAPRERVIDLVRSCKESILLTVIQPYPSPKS
GORASP1, Q9BQQ3, sequence (Q9BQQ3 1-208): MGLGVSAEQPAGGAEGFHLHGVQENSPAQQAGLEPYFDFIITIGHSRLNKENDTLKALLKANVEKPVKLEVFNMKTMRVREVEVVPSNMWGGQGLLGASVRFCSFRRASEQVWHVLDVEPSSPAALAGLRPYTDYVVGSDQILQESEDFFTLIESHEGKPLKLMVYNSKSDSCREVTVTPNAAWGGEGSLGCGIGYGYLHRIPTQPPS
IL16_3, Q14005, sequence (Q14005 1107-1207): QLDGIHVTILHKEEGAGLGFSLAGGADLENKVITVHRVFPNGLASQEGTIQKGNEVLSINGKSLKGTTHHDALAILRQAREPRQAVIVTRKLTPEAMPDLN
MAGI2_2, Q86UL8, sequence (Q86UL8 410-522): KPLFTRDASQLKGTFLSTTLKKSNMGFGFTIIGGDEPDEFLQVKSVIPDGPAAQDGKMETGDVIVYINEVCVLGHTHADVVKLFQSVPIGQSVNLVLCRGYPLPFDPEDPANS
LNX1_2, Q8TBB1, sequence (Q8TBB1 371-470): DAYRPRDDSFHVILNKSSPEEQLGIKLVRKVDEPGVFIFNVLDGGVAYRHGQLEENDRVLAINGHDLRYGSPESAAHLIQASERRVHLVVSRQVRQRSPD
Inadl_5, Q8NI35, sequence (Q8NI35 673-780): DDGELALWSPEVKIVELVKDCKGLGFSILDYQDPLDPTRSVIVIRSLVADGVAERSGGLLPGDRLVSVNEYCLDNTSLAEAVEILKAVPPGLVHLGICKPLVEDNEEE
GRIP2_7, Q9C0E4, sequence (Q9C0E4 934-1023): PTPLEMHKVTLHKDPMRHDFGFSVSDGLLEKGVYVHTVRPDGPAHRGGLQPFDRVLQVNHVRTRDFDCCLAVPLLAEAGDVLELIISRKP
HTRA2, O43464, sequence (O43464 355-458): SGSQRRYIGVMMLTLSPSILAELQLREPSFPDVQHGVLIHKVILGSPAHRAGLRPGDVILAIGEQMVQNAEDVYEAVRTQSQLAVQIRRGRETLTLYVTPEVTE
MAGI2_6, Q86UL8, sequence (Q86UL8 1141-1229): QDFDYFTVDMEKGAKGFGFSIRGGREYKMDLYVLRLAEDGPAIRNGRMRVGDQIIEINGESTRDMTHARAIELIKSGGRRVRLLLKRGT
HTRA1, Q92743, sequence (Q92743 360-477): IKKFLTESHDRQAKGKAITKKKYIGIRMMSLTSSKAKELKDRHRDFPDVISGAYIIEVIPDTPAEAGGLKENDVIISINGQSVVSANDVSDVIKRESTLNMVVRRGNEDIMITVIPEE

B1: GRIN1, Q05586;Q05586-2 (peptide)
chain: LSDPSVSTVV
pKd (HTRA1, Q92743; [1]): 4.32 | pKd (MAGI2_6, Q86UL8; [1]): below the threshold | pKd (TJP3_3, O95049; [1]): below the threshold | pKd (DLG3_2, Q92796; [1]): 4.58 | pKd (FRMPD2_3, Q68DX3; [1]): below the threshold | pKd (IL16_3, Q14005; [1]): below the threshold | pKd (GRIP2_7, Q9C0E4; [1]): below the threshold | pKd (NHERF4_4, Q86UT5; [1]): below the threshold | pKd (APBA3_1, O96018; [1]): below the threshold | pKd (HTRA3, P83110; [1]): below the threshold | pKd (LNX1_2, Q8TBB1; [1]): below the threshold | pKd (LIMK2, P53671; [1]): below the threshold | pKd (Inadl_3, Q8NI35; [1]): below the threshold | pKd (TJP1_3, Q07157; [1]): below the threshold | pKd (FRMPD4, Q14CM0; [1]): below the threshold | pKd (HTRA2, O43464; [1]): below the threshold | pKd (GRIP1_4, Q9Y3R0; [1]): below the threshold | pKd (FRMPD1, Q5SYB0; [1]): below the threshold | pKd (SIPA1L2, Q9P2F8; [1]): below the threshold | pKd (PDZD2_2, O15018; [1]): 4.44 | pKd (GRIP1_5, Q9Y3R0; [1]): below the threshold | pKd (Inadl_5, Q8NI35; [1]): below the threshold | pKd (SNTG2, Q9NY99; [1]): below the threshold | pKd (GORASP1, Q9BQQ3; [1]): below the threshold | pKd (PDZD7_3, Q9H5P4; [1]): 4.54 | pKd (MAGI2_2, Q86UL8; [1]): below the threshold

B2: DFNB31_int, Q9P202 (peptide)
chain: VSVDDVRSTSQGLSSY
pKd (HTRA1, Q92743; [2]): below the threshold | pKd (MAGI2_6, Q86UL8; [2]): below the threshold | pKd (TJP3_3, O95049; [2]): below the threshold | pKd (DLG3_2, Q92796; [2]): 4.12 | pKd (FRMPD2_3, Q68DX3; [2]): below the threshold | pKd (IL16_3, Q14005; [2]): below the threshold | pKd (GRIP2_7, Q9C0E4; [2]): below the threshold | pKd (NHERF4_4, Q86UT5; [2]): below the threshold | pKd (APBA3_1, O96018; [2]): below the threshold | pKd (HTRA3, P83110; [2]): below the threshold | pKd (LNX1_2, Q8TBB1; [2]): below the threshold | pKd (LIMK2, P53671; [2]): below the threshold | pKd (Inadl_3, Q8NI35; [2]): below the threshold | pKd (TJP1_3, Q07157; [2]): below the threshold | pKd (FRMPD4, Q14CM0; [2]): below the threshold | pKd (HTRA2, O43464; [2]): below the threshold | pKd (GRIP1_4, Q9Y3R0; [2]): below the threshold | pKd (FRMPD1, Q5SYB0; [2]): below the threshold | pKd (SIPA1L2, Q9P2F8; [2]): below the threshold | pKd (PDZD2_2, O15018; [2]): below the threshold | pKd (GRIP1_5, Q9Y3R0; [2]): below the threshold | pKd (Inadl_5, Q8NI35; [2]): below the threshold | pKd (SNTG2, Q9NY99; [2]): below the threshold | pKd (GORASP1, Q9BQQ3; [2]): below the threshold | pKd (PDZD7_3, Q9H5P4; [2]): 3.8 | pKd (MAGI2_2, Q86UL8; [2]): below the threshold

B3: LNX2, Q8N448 (peptide)
chain: TVICWPGSLV
pKd (HTRA1, Q92743; [1]): 4.94 | pKd (MAGI2_6, Q86UL8; [1]): 3.56 | pKd (TJP3_3, O95049; [1]): 3.5 | pKd (DLG3_2, Q92796; [1]): 4.07 | pKd (FRMPD2_3, Q68DX3; [1]): below the threshold | pKd (IL16_3, Q14005; [1]): below the threshold | pKd (GRIP2_7, Q9C0E4; [1]): below the threshold | pKd (NHERF4_4, Q86UT5; [1]): below the threshold | pKd (APBA3_1, O96018; [1]): below the threshold | pKd (HTRA3, P83110; [1]): 3.85 | pKd (LNX1_2, Q8TBB1; [1]): 3.99 | pKd (LIMK2, P53671; [1]): below the threshold | pKd (Inadl_3, Q8NI35; [1]): 4.19 | pKd (TJP1_3, Q07157; [1]): below the threshold | pKd (FRMPD4, Q14CM0; [1]): below the threshold | pKd (HTRA2, O43464; [1]): 4.42 | pKd (GRIP1_4, Q9Y3R0; [1]): below the threshold | pKd (FRMPD1, Q5SYB0; [1]): below the threshold | pKd (SIPA1L2, Q9P2F8; [1]): below the threshold | pKd (PDZD2_2, O15018; [1]): 5.07 | pKd (GRIP1_5, Q9Y3R0; [1]): below the threshold | pKd (Inadl_5, Q8NI35; [1]): 3.51 | pKd (SNTG2, Q9NY99; [1]): 3.73 | pKd (GORASP1, Q9BQQ3; [1]): 3.58 | pKd (PDZD7_3, Q9H5P4; [1]): 4.5 | pKd (MAGI2_2, Q86UL8; [1]): 4.26

B4: SARS-CoV2-E, P0DTC4 (peptide)
chain: NLNSSRVPDLLV
pKd (HTRA1, Q92743; [3]): 4.32 | pKd (MAGI2_6, Q86UL8; [3]): below the threshold | pKd (TJP3_3, O95049; [3]): below the threshold | pKd (DLG3_2, Q92796; [3]): below the threshold | pKd (FRMPD2_3, Q68DX3; [3]): below the threshold | pKd (IL16_3, Q14005; [3]): below the threshold | pKd (GRIP2_7, Q9C0E4; [3]): below the threshold | pKd (NHERF4_4, Q86UT5; [3]): below the threshold | pKd (APBA3_1, O96018; [3]): below the threshold | pKd (HTRA3, P83110; [3]): 3.63 | pKd (LNX1_2, Q8TBB1; [3]): 3.81 | pKd (LIMK2, P53671; [3]): below the threshold | pKd (Inadl_3, Q8NI35; [3]): 3.47 | pKd (TJP1_3, Q07157; [3]): below the threshold | pKd (FRMPD4, Q14CM0; [3]): 3.48 | pKd (HTRA2, O43464; [3]): below the threshold | pKd (GRIP1_4, Q9Y3R0; [3]): below the threshold | pKd (FRMPD1, Q5SYB0; [3]): below the threshold | pKd (SIPA1L2, Q9P2F8; [3]): below the threshold | pKd (PDZD2_2, O15018; [3]): below the threshold | pKd (GRIP1_5, Q9Y3R0; [3]): below the threshold | pKd (Inadl_5, Q8NI35; [3]): below the threshold | pKd (SNTG2, Q9NY99; [3]): below the threshold | pKd (GORASP1, Q9BQQ3; [3]): 3.6 | pKd (PDZD7_3, Q9H5P4; [3]): below the threshold | pKd (MAGI2_2, Q86UL8; [3]): below the threshold
